According to patent US20090042849:

Legend:
cycloxygenase-2, P35355 = target: T1, cycloxygenase-2, P35355
T1 chain: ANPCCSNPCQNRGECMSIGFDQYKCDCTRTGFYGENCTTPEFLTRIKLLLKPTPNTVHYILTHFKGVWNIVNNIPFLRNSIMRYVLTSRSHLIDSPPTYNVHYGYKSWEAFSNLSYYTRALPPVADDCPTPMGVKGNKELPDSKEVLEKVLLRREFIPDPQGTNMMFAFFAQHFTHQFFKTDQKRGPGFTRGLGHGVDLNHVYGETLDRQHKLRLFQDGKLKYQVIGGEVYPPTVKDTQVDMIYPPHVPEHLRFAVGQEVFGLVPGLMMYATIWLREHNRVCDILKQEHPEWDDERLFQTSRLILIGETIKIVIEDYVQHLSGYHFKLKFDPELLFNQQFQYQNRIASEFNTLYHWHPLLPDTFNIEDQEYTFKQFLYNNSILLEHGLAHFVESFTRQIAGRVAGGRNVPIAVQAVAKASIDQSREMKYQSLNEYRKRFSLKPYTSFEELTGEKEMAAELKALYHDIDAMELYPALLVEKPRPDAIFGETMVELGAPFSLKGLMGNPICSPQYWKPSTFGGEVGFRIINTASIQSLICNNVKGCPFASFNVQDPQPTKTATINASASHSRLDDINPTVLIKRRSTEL

[1] = target: T2, cytosolic phospholipase A2, P50393
T2 chain: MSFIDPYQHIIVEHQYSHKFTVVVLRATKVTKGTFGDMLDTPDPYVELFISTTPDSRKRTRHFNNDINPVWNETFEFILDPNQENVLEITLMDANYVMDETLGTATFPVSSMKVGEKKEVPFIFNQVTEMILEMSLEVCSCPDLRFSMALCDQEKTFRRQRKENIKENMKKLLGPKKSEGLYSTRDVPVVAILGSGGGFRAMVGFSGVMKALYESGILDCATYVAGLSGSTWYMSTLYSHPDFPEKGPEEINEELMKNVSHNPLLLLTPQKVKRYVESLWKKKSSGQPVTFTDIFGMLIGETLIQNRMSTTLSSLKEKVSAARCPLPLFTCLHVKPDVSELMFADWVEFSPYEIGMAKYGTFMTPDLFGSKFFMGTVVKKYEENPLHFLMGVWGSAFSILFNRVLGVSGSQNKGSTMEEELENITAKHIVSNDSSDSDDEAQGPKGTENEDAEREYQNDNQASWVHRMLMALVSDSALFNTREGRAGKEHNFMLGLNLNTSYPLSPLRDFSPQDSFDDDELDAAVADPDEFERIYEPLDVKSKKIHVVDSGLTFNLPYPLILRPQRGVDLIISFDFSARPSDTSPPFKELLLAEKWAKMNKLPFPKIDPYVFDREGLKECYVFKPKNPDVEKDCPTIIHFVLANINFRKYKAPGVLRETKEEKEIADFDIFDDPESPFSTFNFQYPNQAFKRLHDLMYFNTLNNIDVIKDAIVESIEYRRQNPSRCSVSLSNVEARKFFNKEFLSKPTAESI

B1: 5-lipoxygenase (protein)
chain: MPSYTVTVATGSQWFAGTDDYIYLSLIGSAGCSEKHLLDKAFYNDFERGGRDSYDVTVDEELGEIYLVKIEKRKYRLHDDWYLKYITLKTPHDYIEFPCYRWITGEGEIVLRDGCAKLARDDQIHILKQHRRKELETRQKQYRWMEWNPGFPLSIDAKCHKDLPRDIQFDSEKGVDFVLNYSKAMENLFINRFMHMFQSSWHDFADFEKIFVKISNTISERVKNHWQEDLMFGYQFLNGCNPVLIKRCTELPKKLPVTTEMVECSLERQLSLEQEVQEGNIFIVDYELLDGIDANKTDPCTHQFLAAPICLLYKNLANKIVPIAIQLNQTPGEKNPIFLPTDSKYDWLLAKIWVRSSDFHIHQTITHLLRTHLVSEVFGIAMYRQLPAVHPLFKLLVAHVRFTIAINTKAREQLNCEYGLFDKANATGGGGHVQMVQRAVQDLTYSSLCFPEAIKARGMDNTEDIPYYFYRDDGLLVWEAIQSFTTEVVSIYYEDDQVVEEDQELQDFVKDVYVYGMRGRKASGFPKSIKSREKLSEYLTVVIFTASAQHAAVNFGQYDWCSWIPNAPPTMRAPPPTAKGVVTIEQIVDTLPDRGRSCWHLGAVWALSQFQENELFLGMYPEEHFIEKPVKEAMIRFRKNLEAIVSVIAERNKNKKLPYYYLSPDRIPNSVAI
15ELXA production (cycloxygenase-2, P35355): it interacted with COX2 in the cytosolic fraction (FIG. 11) to generate 15ELXA (FIG. 9A) | LTB4 production [1]: 5-lipoxygenase co-immunoprecipitated with cPLA2 (FIG. 10) and metabolized arachidonic acid, generated by cPLA2, into LTB4
